Data on five molecules can be found in patent US20220153859A1 (ANOKION, published 2022).

Changes are numbered by the printed parent chain.

T1: Human glycophorin A extract (hGPA extract) (human, UniProt P02724 20-150)
T1 construct: also called human GPA extracted from red blood cells (extract)
T1 sequence (looked up): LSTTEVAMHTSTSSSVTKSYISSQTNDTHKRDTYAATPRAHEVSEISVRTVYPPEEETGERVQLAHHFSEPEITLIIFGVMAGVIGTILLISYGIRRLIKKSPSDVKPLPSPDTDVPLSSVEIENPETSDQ

T2: Human glycophorin A on human erythrocytes (human, UniProt P02724 20-150)
T2 construct: whole, on cells; Target of the flow cytometry assays on human erythrocytes; also called human GPA; hGPA
T2 sequence (looked up): T1 sequence (looked up)

B1: Humanized & affinity matured 10F7-M10 Fab clone L1+2-5 (Fab)
heavy: EVQLLESGGGLVQPGKSLRLSCKASGYTFNSYFMHWVRQAPGKGLEWVGMIRPNGGTTDYNEKFKNRFTLSVDKSKNTAYLQMNSLRAEDTAVYYCARWEGSYYALDYWGQGTASTKGPSVFPLAPSSKSTSGGTAALGCLVKDYFPEPVTVSWNSGALTSGVHTFPAVLQSSGLYSLSSVVTVPSSSLGTQTYICNVNHKPSNTKVDKKVEPKSC
light: EITLTQSPATLSLSPGERATLSCRASSNVYNMYWYQQKPGQAPRLWIHRTSNLASGIPDRFSGSGSGTDYTLTISRLEPEDFAVYYCQQFTSSPYTFGQGTKVEVKRTVAAPSVFIFPPSDEQLKSGTASVVCLLNNFYPREAKVQWKVDNALQSGNSQESVTEQDSKDSTYSLSSTLTLSKADYEKHKVYACEVTHQGLSSPVTKSFNRGEC
notes: Soluble Fab from HEK cells; all domains other than VL are the same as wild-type 10F7-M10; also called YN-HR-N
B2: Humanized & affinity matured 10F7-M10 Fab clone L1+2-19 (Fab)
heavy: B1 heavy
light: B1 light with N31Q, R49H, N52F
notes: the tie is by these residues, not by the label; also called YQ-HH-F
B3: Humanized & affinity matured 10F7-M10 Fab clone L1+2-16 (Fab)
heavy: B1 heavy
light: B1 light with Y30F, N31Q, R49H, N52E
notes: Soluble Fab from HEK cells; all domains other than VL are the same as wild-type 10F7-M10; also called FQ-HH-E
B4: Humanized & affinity matured 10F7-M10 Fab clone L1+2-7 (Fab)
heavy: B1 heavy
light: B1 light with Y30H, N31H, R49H, N52L
notes: Soluble Fab from HEK cells; all domains other than VL are the same as wild-type 10F7-M10; also called HH-HH-L
B5: hF-3-103M1 Fab (humanized 3-103, clone M1; parental / wild-type Fab) (Fab, V domains shown)
VH: QVQLVQSGAEVKKPGASVKVSCTASGFNIKDTYMLWVRQAPGQGLEWMGRIDPANANSRYDPKFQGRVTITADTSTNTAYMELSSLRSEDTAVYYCVDGYMFAYWGQGTLVTVSS
VL: DVVMTQTPLSLSVTPGQPASISCKSSQSLLYSNGKTYLHWLLQKPGQSPQRLIYLVSKLDSGVPDRFSGSGSGTDFTLKISRVEAEDVGVYYCVQGTHFPLTFGQGTKLEIKR
notes: Soluble humanized Fab; also called parent Fab

The target in one assay is T1, Human glycophorin A extract (hGPA …). Description: Octet BLI, hGPA extract, apparent; biphasic off-rate to fit data. Background: BLI is a label-free optical method that tracks binding on a fibre tip over time.
For orientation: koff means the first-order rate constant of dissociation. For orientation: kon means the rate constant with which the complex forms. In the case of B1, the koff is 0.0081 s⁻¹ and the kon stood at 790000 M⁻¹ s⁻¹.

Turning to B2, the koff came to 0.0033 s⁻¹ and the kon turned out to be 480000 M⁻¹ s⁻¹.

As for B3, the koff stood at 0.0038 s⁻¹ and the kon was 610000 M⁻¹ s⁻¹.

For the molecule B4, the koff was 0.0037 s⁻¹ and the kon stood at 160000 M⁻¹ s⁻¹.

The next assay has the same target. Put plainly: Octet BLI, hGPA extract, apparent KD; biphasic off-rate to fit data.
In the case of B1, the Kd was 10 nM.

As for B2, the Kd was 6.83 nM.

For B3, the Kd was 6.18 nM.

Regarding B4, the Kd is 23 nM.

In a further assay the target is T2, Human glycophorin A on human …. Put plainly: flow cytometry on human erythrocytes, Fab in culture supernatant [C]. A digest of the protocol: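 Fabs chosen from one CDR library by next-generation-sequencing enrichment were expressed as soluble Fabs in HEK cells in high-throughput format. Fab concentration in the culture supernatant was quantified by Octet biolayer interferometry. Supernatant Fabs were tested for binding to human erythrocytes by flow cytometry, read as median fluorescence intensity curves. These curves were compared with the parental Fab.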
(Flow cytometry measures light scatter and fluorescence of single cells or particles in a stream.)
As to B5, the binding result is listed as “binds”.

For the next assay, the target named is T1, Human glycophorin A extract (hGPA …). Description: Biacore SPR, hGPA extract, apparent KD; biphasic off-rate to fit data.
With B1, the Kd was determined as 10.2 nM.

Turning to B2, the Kd was found to be 6.83 nM.

For the molecule B3, the Kd turned out to be 6.18 nM.

Consider B4, for which the Kd was determined as 23.2 nM.

The target in another assay is T2, Human glycophorin A on human …. Description: flow cytometry (FACS) on human erythrocytes, soluble Fab.
A word on the EC50: it is the concentration needed to bring the measured effect to its halfway point. The low end stands for greater potency, the high end for weaker potency. B1 had an EC50 of 8.8 nM.

In turn, B2 came in with an EC50 of 4.6 nM.

In the case of B3, the EC50 was 4.6 nM.

With B4, a half-maximal response (EC50) required 6.9 nM.

A further assay has as its target T1, Human glycophorin A extract (hGPA …). Put plainly: Biacore SPR, hGPA extract, apparent; biphasic off-rate to fit data.
With B1, the koff was determined as 0.00808 s⁻¹ and the kon was 795000 M⁻¹ s⁻¹.

For the molecule B2, the koff was determined as 0.00326 s⁻¹ and the kon worked out at 477000 M⁻¹ s⁻¹.

In the case of B3, the koff is 0.00376 s⁻¹ and the kon came to 608000 M⁻¹ s⁻¹.

For B4, the koff came to 0.00371 s⁻¹ and the kon was found to be 160000 M⁻¹ s⁻¹.
